Assay: soluble on expression in E. coli; label from the status in PepcDB or PDB records

Sequence | soluble on expression in E. coli
GPGSMVDPSVLLAYCPTHDFQRIEAVVREWPGVEAVGSLRTKEGKENTTSVFIKFSDKEAARDATSRIDAVPGLVRKIEEPKAKQRMRKMGKNMLIDPAMEIFSFGATDKGDVTFNERKREGNRRRHPSVIGPGSGSERTSNKGNNAIRHHPFTPPARASVALVDNVPFNMTNDQVARLFSPFGELIDLSRYETMAMVFYRSPDSVLKCIQQLNGKTVKGKIITVSSGAITIPGLLAAVVGVQVHN | soluble
MDRGVAQVASAPALGAGGRWFKSSRPDHFFIEVDKALLKEVKDMPIYRYVCEECGYETTVMHGINESPEVICEECGAKMKRTIGRVGIIFKGSGFYITDSRKSEKKKEAASASSEKKD | not soluble
MGHHHHHHSHMVEFPLPPHLTCAVIKAASLDCEDLLLPIAAMLSVENVFIRPVDPEYQKEAEQRHRELAAKAGGFNDFATLAVIFEQCKSSGAPASWCQKHWIHWRCLFSAFRVEAQLRELIRKLKQQSDFPKETFEGPKHEVLRRCLCAGYFKNVARRSVGRTFCTMDGRGSPVHIHPSSALHEQETKLEWIIFHEVLVTTKVYARIVCPIRYEWVRDLLPKLHEFNAHDLSSVARREVREDARRRWTNKENVKQLKDGISKDVLKKMQRRNDDKSISDARARFLERKQQRTQDHSDTRKETG | not soluble
MNLTDYVKEVSRQDFGIEFQHTASWNSRLQTTGGRFFPEDGHLDFNPKFCKKGDAGTFRKIVRHELCHYHLYYAGKGYRHGDKDFKDLLLQVNGVRYAPSIQSNTFYHYYQCESCGQVYQRKRRMNTKKYACGNCHGKLRHQNQSLEHHHHHH | not soluble
MSLSPNDHCFSSHTETGPRKRNEDFSVYIDDLNSLLTCHHGRISVFGVFDGHMGTSASDYCSFKIFNYLVSNPHFPENIQIALKESFKQVNKGFLTIADVLHINAGTTAGVCVIDDKKITTANIGDTEIMFCKRNHKPLILSNKHSPNNEIEKQRIELAGGKVFYFHGWRVEGLLGVSRSIGDIALKKFVIDEADTNQIERSPDDEFVLIGCDGLWNVISYDFCADMVREYLYTNNYNGVDENGIKKPINKKDIARYLVDLALFKQSLDNVTVSIYFFSKEGHHHHHH | soluble
MGSDKIHHHHHHMHTMHIPSGDVLIPKPKLITEETDPLHIIKTRQKTHGRPVTIAGPMVRYSKLPFRQLCREYNVDIVYSPMILAREYVRNEHARISDLSTNNEDTPLIVQVGVNNVADLLKFVEMVAPYCDGIGINCGCPIKEQIREGIGCALIYNSDLLCSMVHAVKDKYGDKLRIETKIRIHEALDETVELCRKLCDAGVDWITIHGRTRRTRSSQPANLDAIKYIIENISDKNVPVIANGDCFKLSDLERITKYTGAHGVMAVRGLLSNPALFAGYTTCPWGCIEKFCYWALEFGGLPFQLAQHHLYCMLENMELKKSLLKKMMNLKNYISLIDWFNKTFEFKRYGEDGFGMGVEIPYKANSCVQRSASVVERQE | not soluble
MSLEIADLKVHFDIKEGKQWFWQPPKTLKAVDGVTLRLYEGETLGVVGESGCGKSTFARAIIGLVKATDGKVAWLGKDLLGMKADEWREVRSDIQMIFQDPLASLNPRMTIGEIIAEPLRTYHPKLSRQDVRDRVKAMMLKVGLLPNLINRYPHEFSGGQCQRIGIARALILEPKLIICDEPVSALDVSIQAQVVNLLQQLQREMGLSLIFIAHDLAVVKHISDRVLVMYLGHAVELGTYDEVYHNPLHPYTKALMLAVPIPDPDLERNKKIQLLEGELPSPINPPSEGHHHHHH | soluble
MIRMETYPHNFEEKVGFDEIRRLLIGHCHSPMGSDRVIQMHALARHNEVSRLLAETEEMQIILREEDLFPDLRLADVREALNRIRPAGTYLEERELQDVATALRTIEALIRFFHVGEEEEGKDTPYPHLQTLLSEVIVFPDLEKRISSLFDRFGKMKDNASPELMNIRRELSSIEKNISRTLQGILRLAQSEGWVDQGVQPSVRDGRLVIPVAPAHKRKVRGIVHDESGTGKTVFIEPAEIVEANNRIRELEAAERREIIRILIEVCDALRPHIHDLIDCYEWIGLFDFISAKARLCGEWNAIRPILSKKPEIRWEKAVHPLLLRSLRAHGRDVIPLDISLTAPDKRILVISGPNAGGKSVCLKTVGLLQYMLQSGLPIPMSPDSTAGIFGKLFIDIGDEQSIEDDLSTYSSHLRNMKHFARHTDKNTLLLIDEFGGGTEPQIGGAIAEALLHRFNEQEGFGVVTTHYQNLKAYAEETPGLVNGAMLYDRHEMRPLFRLSIGRPGSSFAIEIARKIGLPEEVIAEATDKVGTGYIDMDKYLQDIVRDKRYWETKRTNIRKEEKRLEGAAAEYESRLESIKKERKQILDEARQQASVMLSQSSAQIEKTIRDIKEAQAEREKTRRARQELNDFRETINKEEIEKEERINREIEKIKRRKKRKQEKAASRSAETPVQPKLQEVPQPPVIQVGDTVRIKGQTAIGSIIDMNDREATIALGMIKTTVPIDRLEPAKPVKERKSEPVSGASARMIIDRIHEKRLDFKQDIDLRGMRVNEAVQAVMYFIDDAIQLGIPRVRILHGTGTGALRTVIREYLATVNGVRHFADEHVQFGGAGITVVELG | not soluble
MTLNYHAHGKEIEASYRRASDDSDGDKWVIFDYEGNSNTLRVKEEGTGGLEEFADSFSSGKLQFGVISVRLSSDVFPKIVLVHWQGEGVPTLRLASTTPHAEEFRRFLKTVHIVLHARSEIDIEPDAIRKEVRKLPAANANAIVESTYSMPEKVNSVYQPTNAHSELSSEARENFWSTTNQEEKRRQADEKVAHAKQQKQYEADRDRTAAAIHTKAEDFQPEKVNSVYKPTKPHVELKTVKREEFWSKMNEEEKLRQEEEKTAREQAHKQFEADRQRMASEIHSKTENYQPDKVTSVYKPTKPHVEISSSAREEFWSKMNEEEQRRQAEEKEAQAQKQKEFETDRKRIADDLHGKAQISDKPVPSSVNPAPAPAPTPSAGLVGSRKELFSSKPSGPVLPKPQVNGSPKKWPPVGTTSPPREPVNRLTEPDEPSTYTPKPIAYEPEPMVYKPEAMKPAVSYDAYEEPPAEPAPPTFLAPTPVIAPPPPEPTPAPSHYASQYDAPPVHESFEPAVPPVSAPSHYASQYDAPPEPIDSHSSSSQLPAHIASQYDMPPVMPEEPVFAPKSSPIKVAAPPIDQYDFPPAVAEQNAMALWDYQAADDTEISFDPDDIITDIDQVDSGWWKGRAPSGRVGLFPANYVKLI | not soluble
MSSKLVLVLNCGSSSLKFAIIDAVNGEEYLSGLAECFHLPEARIKWKMDGNKQEAALGAGAAHSEALNFIVNTILAQKPELSAQLTAIGHRIVHGGEKYTSSVVIDESVIQGIKDAASFAPLHNPAHLIGIEEALKSFPQLKDKNVAVFDTAFHQTMPEESYLYALPYNLYKEHGIRRYGAHGTSHFYVTQEAAKMLNKPVEELNIITCHLGNGGSVSAIRNGKCVDTSMGLTPLEGLVMGTRSGDIDPAIIFHLHDTLGMSVDAINKLLTKESGLLGLTEVTSDCRYVEDNYATKEDAKRAMDVYCHRLAKYIGAYTALMDGRLDAVVFTGGIGENAAMVRELSLGKLGVLGFEVDHERNLAARFGKSGFINKEGTRPAVVIPTNEELVIAQDASRLTA | soluble
WAIFVEQSDGHYRVRLRSKSHIINEIAKRHNGGGHPLASGANSYSLEENQAIYQ | soluble
MQEVAMSSQEASKMLRTYNIAWWGNNYYDVNELGHISVCPDPDVPEARVDLAQLVKTREAQGQRLPALFCFPQILQHRLRSINAAFKRARESYGYNGDYFLVYPIKVNQHRRVIESLIHSGEPLGLEAGSKAELMAVLAHAGMTRSVIVCNGYKDREYIRLALIGEKMGHKVYLVIEKMSEIAIVLDEAERLNVVPRLGVRARLASQGSGKWQSSGGEKSKFGLAATQVLQLVETLREAGRLDSLQLLHFHLGSQMANIRDIATGVRESARFYVELHKLGVNIQCFDVGGGLGVDYEGTRSQSDCSVNYGLNEYANNIIWAIGDACEENGLPHPTVITESGRAVTAHHTVLVSNIIGVERNEYTVPTAPAEDAPRALQSMWETWQEMHEPGTRRSLREWLHDSQMDLHDIHIGYSSGIFSLQERAWAEQLYLSMCHEVQKQLDPQNRAHRPIIDELQERMADKMYVNFSLFQSMPDAWGIDQLFPVLPLEGLDQVPERRAVLLDITCDSDGAIDHYIDGDGIATTMPMPEYDPENPPMLGFFMVGAYQEILGNMHNLFGDTEAVDVFVFPDGSVEVELSDEGDTVADMLQYVQLDPKTLLTQFRDQVKKTDLDAELQQQFLEEFEAGLYGYTYLEDELEHHHHHH | not soluble

Source: the DeepSol protein solubility set
